Experimental data taken from patent publication US20200392225A1 (Novartis, published 2020).

T1: human NPR1 expressed on CHO-K1 cells (human, UniProt P16066 33-1061)
T1 sequence: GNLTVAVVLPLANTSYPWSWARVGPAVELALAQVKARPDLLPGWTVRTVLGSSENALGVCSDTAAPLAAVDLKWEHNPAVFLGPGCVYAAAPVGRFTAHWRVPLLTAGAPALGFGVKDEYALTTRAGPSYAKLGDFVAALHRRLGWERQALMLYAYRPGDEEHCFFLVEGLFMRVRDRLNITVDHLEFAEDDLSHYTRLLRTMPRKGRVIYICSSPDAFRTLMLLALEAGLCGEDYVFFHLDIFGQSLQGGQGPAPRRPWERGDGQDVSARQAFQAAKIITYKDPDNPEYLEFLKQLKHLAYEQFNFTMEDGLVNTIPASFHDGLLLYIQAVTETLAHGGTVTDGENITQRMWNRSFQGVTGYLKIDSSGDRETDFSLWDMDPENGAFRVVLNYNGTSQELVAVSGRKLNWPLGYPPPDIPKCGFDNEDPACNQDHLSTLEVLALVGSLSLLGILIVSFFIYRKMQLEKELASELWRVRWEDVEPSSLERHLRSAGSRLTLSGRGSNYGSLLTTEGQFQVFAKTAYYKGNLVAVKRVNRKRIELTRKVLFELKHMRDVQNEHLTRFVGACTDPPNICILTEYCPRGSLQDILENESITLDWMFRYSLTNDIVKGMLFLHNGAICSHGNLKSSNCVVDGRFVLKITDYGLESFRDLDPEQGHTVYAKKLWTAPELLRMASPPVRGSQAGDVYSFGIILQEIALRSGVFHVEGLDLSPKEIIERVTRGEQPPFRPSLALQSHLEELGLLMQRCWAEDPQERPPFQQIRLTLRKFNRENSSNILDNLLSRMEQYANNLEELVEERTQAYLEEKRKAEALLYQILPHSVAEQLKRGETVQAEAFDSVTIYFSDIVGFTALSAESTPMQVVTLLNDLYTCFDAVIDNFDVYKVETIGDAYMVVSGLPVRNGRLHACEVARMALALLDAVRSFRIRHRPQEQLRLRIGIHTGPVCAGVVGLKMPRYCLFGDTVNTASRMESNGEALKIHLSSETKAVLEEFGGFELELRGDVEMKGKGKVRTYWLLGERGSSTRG

T2: human NPR1 (Natriuretic Peptide Receptor 1), recombinant antigen (human, UniProt P16066 33-473)
T2 construct: also called hNPR1; NPR1-hFc
T2 sequence: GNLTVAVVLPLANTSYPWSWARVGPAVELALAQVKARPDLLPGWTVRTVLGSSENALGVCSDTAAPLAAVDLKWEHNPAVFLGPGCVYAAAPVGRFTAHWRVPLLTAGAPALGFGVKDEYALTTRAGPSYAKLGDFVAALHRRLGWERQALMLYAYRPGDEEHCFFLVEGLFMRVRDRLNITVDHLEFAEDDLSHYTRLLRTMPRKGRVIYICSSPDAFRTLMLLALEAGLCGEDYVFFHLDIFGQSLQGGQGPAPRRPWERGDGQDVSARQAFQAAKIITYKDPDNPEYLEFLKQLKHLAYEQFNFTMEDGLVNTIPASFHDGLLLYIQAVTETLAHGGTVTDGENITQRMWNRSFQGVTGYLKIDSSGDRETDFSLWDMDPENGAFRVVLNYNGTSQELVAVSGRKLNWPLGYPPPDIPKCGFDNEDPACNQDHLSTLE

T3: human NPR1-ANP complex (human, UniProt P01160 124-151, limits assumed)
T3 construct: Receptor antigen measured in the presence of ANP; also called hNPR1 + ANP; hNPR1-ANP-complex
T3 sequence: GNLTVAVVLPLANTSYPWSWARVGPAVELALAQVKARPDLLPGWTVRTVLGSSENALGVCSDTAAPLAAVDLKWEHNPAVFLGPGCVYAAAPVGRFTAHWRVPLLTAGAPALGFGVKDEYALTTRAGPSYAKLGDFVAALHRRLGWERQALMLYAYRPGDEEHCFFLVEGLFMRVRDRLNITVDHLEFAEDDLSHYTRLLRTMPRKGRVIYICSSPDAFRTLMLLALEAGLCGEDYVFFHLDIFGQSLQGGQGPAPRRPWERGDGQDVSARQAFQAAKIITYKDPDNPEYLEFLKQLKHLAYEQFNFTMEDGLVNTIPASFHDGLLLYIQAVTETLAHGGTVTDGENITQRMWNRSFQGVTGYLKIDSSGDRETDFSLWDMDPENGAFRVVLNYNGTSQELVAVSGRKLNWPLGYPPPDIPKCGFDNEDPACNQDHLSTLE
T3 sequence (peptide): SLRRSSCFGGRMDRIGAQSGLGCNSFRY

T4: human NPR1 expressed on CHO-K1 cells in the presence of ANP (human, UniProt P01160 124-151)
T4 construct: also called hNPR1 CHO K1 + 100 nM ANP
T4 sequence: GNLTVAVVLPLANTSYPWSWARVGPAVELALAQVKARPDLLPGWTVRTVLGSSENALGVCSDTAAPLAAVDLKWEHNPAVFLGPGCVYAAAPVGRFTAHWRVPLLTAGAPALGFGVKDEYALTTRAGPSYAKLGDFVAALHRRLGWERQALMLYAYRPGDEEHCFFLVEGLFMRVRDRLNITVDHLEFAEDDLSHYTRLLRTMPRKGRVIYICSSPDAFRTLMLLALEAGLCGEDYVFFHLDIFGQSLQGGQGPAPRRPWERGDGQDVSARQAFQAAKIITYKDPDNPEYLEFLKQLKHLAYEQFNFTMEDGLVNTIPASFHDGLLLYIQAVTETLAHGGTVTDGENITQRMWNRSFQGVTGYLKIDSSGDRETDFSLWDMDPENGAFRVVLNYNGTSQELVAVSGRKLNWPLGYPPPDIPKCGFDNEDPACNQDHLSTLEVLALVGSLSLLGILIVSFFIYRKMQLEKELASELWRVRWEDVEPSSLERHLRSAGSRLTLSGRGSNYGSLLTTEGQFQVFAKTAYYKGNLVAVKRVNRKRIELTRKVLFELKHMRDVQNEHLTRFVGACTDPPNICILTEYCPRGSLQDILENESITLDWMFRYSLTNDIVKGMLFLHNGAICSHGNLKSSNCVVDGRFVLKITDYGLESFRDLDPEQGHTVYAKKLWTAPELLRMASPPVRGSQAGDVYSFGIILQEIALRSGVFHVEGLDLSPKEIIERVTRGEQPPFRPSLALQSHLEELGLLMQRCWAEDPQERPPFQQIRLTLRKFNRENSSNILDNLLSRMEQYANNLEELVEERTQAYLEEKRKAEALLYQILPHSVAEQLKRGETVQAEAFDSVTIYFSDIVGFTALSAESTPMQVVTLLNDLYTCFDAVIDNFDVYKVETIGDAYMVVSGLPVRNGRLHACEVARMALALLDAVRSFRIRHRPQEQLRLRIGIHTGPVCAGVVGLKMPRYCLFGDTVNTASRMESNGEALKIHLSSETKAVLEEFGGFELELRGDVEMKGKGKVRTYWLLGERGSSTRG
T4 sequence (peptide): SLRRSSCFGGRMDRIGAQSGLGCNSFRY


Columns and labels:
[1] = molecular target: T1, human NPR1 expressed on CHO-K1 cells; test: cell-based or functional assay
[2] = molecular target: T1, human NPR1 expressed on CHO-K1 cells; test: flow cytometry, 1 uM IgG
[3] = molecular target: T2, human NPR1 (Natriuretic Peptide …); test: ELISA, 1 uM IgG
rat NPR1-ANP complex [4] = molecular target: T5, rat NPR1-ANP complex (rat); test: ELISA, 1 uM IgG, +100 nM ANP
T5 construct: Rat receptor antigen measured in the presence of ANP; also called rNPR1 + ANP; rNPR1-ANP-complex

human NPR1-ANP complex [5] = molecular target: T3, human NPR1-ANP complex; test: ELISA, 1 uM IgG, +100 nM ANP
[6] = molecular target: T1, human NPR1 expressed on CHO-K1 cells; test: cell-based or functional assay; remark: listed apart in the source
[7] = molecular target: T4, human NPR1 expressed on CHO-K1 cells in …; test: flow cytometry, 1 uM IgG, +100 nM ANP
[8] = molecular target: T1, human NPR1 expressed on CHO-K1 cells; test: cell-based or functional assay; remark: listed apart in the source
rat NPR1-ANP complex [9] = molecular target: T5, rat NPR1-ANP complex; test: ELISA, IgG titrated on the antigen with 250 fold molar excess of ANP
human NPR1-ANP complex [10] = molecular target: T3, human NPR1-ANP complex; test: ELISA, IgG titrated on the antigen with 250 fold molar excess of ANP [cont.]

T5 sequence (P18910 29-469, one chain of several): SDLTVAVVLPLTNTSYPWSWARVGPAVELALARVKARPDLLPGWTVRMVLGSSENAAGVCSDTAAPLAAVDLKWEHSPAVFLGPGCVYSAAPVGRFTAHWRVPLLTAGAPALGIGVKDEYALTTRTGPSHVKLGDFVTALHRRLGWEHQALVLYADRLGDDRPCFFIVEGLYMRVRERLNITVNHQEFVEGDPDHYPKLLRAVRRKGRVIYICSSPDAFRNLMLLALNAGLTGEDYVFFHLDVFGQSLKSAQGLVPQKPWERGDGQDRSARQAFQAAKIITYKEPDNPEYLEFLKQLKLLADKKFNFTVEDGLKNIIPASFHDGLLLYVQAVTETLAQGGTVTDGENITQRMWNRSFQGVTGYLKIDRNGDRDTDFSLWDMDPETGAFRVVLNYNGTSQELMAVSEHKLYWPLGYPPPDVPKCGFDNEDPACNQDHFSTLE

cGMP conc [nM] at 1 uM FabCys, +0.075 nM ANP [1] [nM] | cGMP conc [nM] at 1 uM FabCys, without ANP [1] [nM] | ELISA IgG binding at 1 uM IgG (unit not given) (rat NPR1-ANP complex [4]) | ELISA IgG binding at 1 uM IgG (unit not given) (human NPR1-ANP complex [5]) | flow cytometry S/BG [7] [S/BG] | Binder | further results
46 | 15 | – | – | – | YY01 FabCys (Fab, V domains shown) VH: EVQLVESGGGLVQPGGSLRLSCAASGFTFSSYWISWVRQAPGKGLEWVANIKQSGSETYYVESVKGRFTISRDNAKNSLYLQMNSLRAEDTAVYYCARSLRRRSTEHAGFDVWGQGTLVTVSS VL: DIQMTQSPSSLSASVGDRVTITCRASQGISNYLAWYQQKPGKVPKLLIYAASTLQSGVPSRFSGSGSGTDFTLTISSLQPEDVATYYCQQADKFPYTFGQGTKVEIK | –
– | – | 50 | 76 | 21 | YY01 IgG (YY01_LALA) (antibody, V domains shown) VH: EVQLVESGGGLVQPGGSLRLSCAASGFTFSSYWISWVRQAPGKGLEWVANIKQSGSETYYVESVKGRFTISRDNAKNSLYLQMNSLRAEDTAVYYCARSLRRRSTEHAGFDVWGQGTLVTVSS VL: DIQMTQSPSSLSASVGDRVTITCRASQGISNYLAWYQQKPGKVPKLLIYAASTLQSGVPSRFSGSGSGTDFTLTISSLQPEDVATYYCQQADKFPYTFGQGTKVEIKR | flow cytometry S/BG [2]: 35 S/BG; ELISA IgG binding at 1 uM IgG (unit not given) [3]: 54; cGMP conc [nM] at 1 uM IgG, +0.075 nM ANP [6]: 14 nM; cGMP conc [nM] at 1 uM IgG, without ANP [6]: 5 nM
67 | 18 | – | – | – | YY04 FabCys (Fab, V domains shown) VH: EVQLVESGGGLVKPGGSLRLSCAASGFTFSNYWISWVRQAPGKGLEWVGRIKSKTYGGTTDYAEPVKGRFTISRDDSKNTLYLQMNSLKTEDTAVYYCAREKYSIRARGHGDYGFDVWGQGTLVTVSS VL: DIQMTQSPSSLSASVGDRVTITCRASQGISNYLAWYQQKPGKVPKLLIYAASTLQSGVPSRFSGSGSGTDFTLTISSLQPEDVATYYCQQGYHAPFTFGQGTKVEIK | –
– | – | – | – | – | WW03 FabCys (Fab, V domains shown) VH: QVQLLESGGGLVQPGGSLRLSCAASGFTFSSYWMNWVRQAPGKGLEWVSAISSDGSYTYYADSVKGRFTISRDNSKNTLYLQMNSLRAEDTAVYYCARDRYSMIYSYGAGAFDYWGQGTLVTVSS VL: DIQMTQSPSSLSASVGDRVTITCRASQGISSYLAWYQQKPGKAPKLLIYTASTLQSGVPSRFSGSGSGTDFTLTISSLQPEDFATYYCMQSYEKPRTFGQGTKVEIK | cGMP conc [nM] at 2 uM FabCys, +0.075 nM ANP [8]: 108 nM; cGMP conc [nM] at 2 uM FabCys, without ANP [8]: 32 nM
– | – | – | – | – | XX04 IgG (antibody, V domains shown, also called XX04_LALA) VH: QVQLLESGGGLVQPGGSLRLSCAASGFTFSSYWMNWVRQAPGKGLEWVSAISSDGSYTYYADSVKGRFTISRDNSKNTLYLQMNSLRAEDTAVYYCARDRYSMIYSYGAGAFDYWGQGTLVTVSS VL: DIQMTQSPSSLSASVGDRVTITCRASQGISSYLAWYQQKPGKAPKLLIYTASTLQSGVPSRFSGSGSGTDFTLTISSLQPEDFATYYCQQEWVKPRTFGQGTKVEIKR | EC50 (read off the curve) (rat NPR1-ANP complex [9]): ~0.2 nM
– | – | 54 | 60 | 33 | YY04 IgG (YY04_LALA) (antibody, V domains shown) VH: EVQLVESGGGLVKPGGSLRLSCAASGFTFSNYWISWVRQAPGKGLEWVGRIKSKTYGGTTDYAEPVKGRFTISRDDSKNTLYLQMNSLKTEDTAVYYCAREKYSIRARGHGDYGFDVWGQGTLVTVSS VL: DIQMTQSPSSLSASVGDRVTITCRASQGISNYLAWYQQKPGKVPKLLIYAASTLQSGVPSRFSGSGSGTDFTLTISSLQPEDVATYYCQQGYHAPFTFGQGTKVEIKR | EC50 (read off the curve) (human NPR1-ANP complex [10]): ~0.3 nM
